Key:
Format in all cases: biochemical
[1] = target: recombinant PAF-AH encoded by clone sAH 406-3 (Homo sapiens, UniProt Q13093)
recombinant PAF-AH = target: T1, recombinant PAF-AH (Homo sapiens, UniProt Q13093); assay: Inhibition of PAF hydrolysis in standard PAF hydrolysis assay; conditions: 0 to 125 μM; highest concentration 5-fold greater than PAF
T1 construct: 441 amino acids; At the amino terminus, a relatively hydrophobic segment of 41 residues precedes the N-terminal amino acid (the isoleucine at position 42); made in house; host or cells: E. coli (constructs trp AH / pUC trp AH)
T1 sequence (Q13093 42-441): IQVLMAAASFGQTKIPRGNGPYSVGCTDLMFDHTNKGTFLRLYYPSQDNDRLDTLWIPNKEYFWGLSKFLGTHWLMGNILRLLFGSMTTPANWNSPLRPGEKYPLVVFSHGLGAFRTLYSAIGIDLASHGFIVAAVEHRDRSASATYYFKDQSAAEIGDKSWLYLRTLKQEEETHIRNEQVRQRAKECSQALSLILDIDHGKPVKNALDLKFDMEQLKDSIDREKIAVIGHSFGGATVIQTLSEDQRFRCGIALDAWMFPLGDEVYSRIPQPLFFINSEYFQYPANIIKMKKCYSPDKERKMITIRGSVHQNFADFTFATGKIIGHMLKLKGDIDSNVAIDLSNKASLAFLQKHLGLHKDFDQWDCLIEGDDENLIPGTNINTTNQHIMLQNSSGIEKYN
Experimental: The most remarkable property of the PAF acetylhydrolase is its marked specificity for substrates with a short residue at the sn-2 position of the substrate. This strict specificity distinguishes PAF acetylhydrolase from other forms of PLA2. Thus, to determine if recombinant PAF-AH degrades phospholipids with long-chain fatty acids at the sn-2 position, hydrolysis of 1-palmitoyl-2-arachidonoyl-sn-glycero-3-phosphocholine (arachidonoylPC) was assayed since this is the preferred substrate for a well-characterized form of PLA2. […] In additional experiments, arachidonoylPC was included in a standard PAF hydrolysis assay at concentrations ranging from 0 to 125 μM to determine whether it inhibited the hydrolysis of PAF by recombinant PAF-AH. There was no inhibition of PAF hydrolysis even at the highest concentration of […], which was 5-fold greater than the concentration of PAF. […] Native plasma PAF-AH has several other properties that distinguish it from other phospholipases including calcium-independence and resistance to compounds that modify sulfhydryl groups or disrupt disulfides.

[2] = PAF-AH activity of E. coli constructs with extended amino termini (lysate, media); conditions: trp promoter
Experimental: PAF-AH activity in transfectant supernatants was determined by the method of Stafforini et al. (1990), supra, with the following modifications. Briefly, PAF-AH activity was determined by measuring the hydrolysis of ^3H-acetate from [acetyl-^3H) PAF (New England Nuclear, Boston, Mass.). The aqueous free ^3H-acetate was separated from labeled substrate by reversed-phase column chromatography over octadecylsilica gel cartridges (Baker Research Products, Phillipsburg, Pa.). Assays were carried out using 10 μl transfectant supernatant in 0.1M Hepes buffer, pH 7.2, in a reaction volume of 50 μl. A total of 50 pmoles of substrate were used per reaction with a ratio of 1:5 labeled: cold PAF. Reactions were incubated for 30 minutes at 37° C. and stopped by the addition of 40 μl of 10M acetic acid. The solution was then washed through the octadecylsilica gel cartridges which were then rinsed with 0.1M sodium acetate. The aqueous eluate from each sample was collected and counted in a liquid scintillation counter for one minute. Enzyme activity was expressed in counts per minute.
and encompassed the termination codon of sAH 406-3 and contained an EcoRV cloning site. PCR reactions were performed essentially as described in Example 3. The resulting PCR product was digested with XbaI and EcoRV and subcloned into a pBR322 vector containing the Trp promoter [deBoer et al., PNAS. 80:21-25 (1983)] immediately upstream of the cloning site. E. coli strain XL-1 Blue was transformed with the expression construct and cultured in L broth containing 100 μg/ml of carbenicillin. Transformants from overnight cultures were pelleted and resuspended in lysis buffer containing 50 mM Tris-HCl pH 7.5, 50 mM NaCl, 10 mM CHAPS, 1 mM EDTA, 100 μg/ml lysozyme, and 0.05 trypsin-inhibiting units (TIU)/ml Aprotinin. Following a 1 hour incubation on ice and sonication for 2 minutes, the lysates were assayed for PAF-AH activity by the method described in Example 4. E. coli transformed with the expression construct (designated trp AH) generated a product with PAF-AH activity.
Several E. coli expression constructs were also evaluated which produce PAF-AH with extended amino termini. The N-terminus of natural plasma PAF-AH was identified as Ile42 by amino acid sequencing (Example 2). […] Acids Res., 14:4683-4690 (1986)]. Presumably a more classical signal sequence (M1-A17) is recognized by the cellular secretion system, followed by endoproteolytic cleavage. The entire coding sequence for PAF-AH beginning at the initiating methionine (nucleotides 162 to 1487 of SEQ ID NO: 7) was engineered for expression in E. coli using the trp promoter. […] Another expression construct, beginning at Val18 (nucleotides 213 to-1487 of SEQ ID NO: 7), produced active PAF-AH at about one third the level of the original construct.

## O=C(O)CN(CCN(CC(=O)O)CC(=O)O)CC(=O)O [EDTA, reference compound]
[1]
  Effect on PAF-AH activity of media from cells transfected with sAH 406-3: unaffected

## CCCCC/C=C\C/C=C\C/C=C\C/C=C\CCCC(=O)O[C@H](COC(=O)CCCCCCCCCCCCCCC)COP(=O)([O-])OCC[N+](C)(C)C [arachidonoylPC, 1-palmitoyl-2-arachidonoyl-sn-glycero-3-phosphocholine]
Recombinant PAF-AH
  Inhibition of hydrolysis of PAF by recombinant PAF-AH: no inhibition

B1: sAH 406-3: Full length human plasma PAF-AH cDNA clone, product transiently expressed in COS 7 cells (protein)
chain: MVPPKLHVLFCLCGCLAVVYPFDWQYINPVAHMKSSAWVNKIQVLMAAASFGQTKIPRGNGPYSVGCTDLMFDHTNKGTFLRLYYPSQDNDRLDTLWIPNKEYFWGLSKFLGTHWLMGNILRLLFGSMTTPANWNSPLRPGEKYPLVVFSHGLGAFRTLYSAIGIDLASHGFIVAAVEHRDRSASATYYFKDQSAAEIGDKSWLYLRTLKQEEETHIRNEQVRQRAKECSQALSLILDIDHGKPVKNALDLKFDMEQLKDSIDREKIAVIGHSFGGATVIQTLSEDQRFRCGIALDAWMFPLGDEVYSRIPQPLFFINSEYFQYPANIIKMKKCYSPDKERKMITIRGSVHQNFADFTFATGKIIGHMLKLKGDIDSNVAIDLSNKASLAFLQKHLGLHKDFDQWDCLIEGDDENLIPGTNINTTNQHIMLQNSSGIEKYN
[1]
  PAF-AH activity of transfected COS cell media relative to background: 4 fold

B2: pUC trp AH Met1: PAF-AH from entire coding sequence beginning at the initiating methionine, E. coli, trp promoter (protein, UniProt Q13093 1-441, looked up)
chain: MVPPKLHVLFCLCGCLAVVYPFDWQYINPVAHMKSSAWVNKIQVLMAAASFGQTKIPRGNGPYSVGCTDLMFDHTNKGTFLRLYYPSQDNDRLDTLWIPNKEYFWGLSKFLGTHWLMGNILRLLFGSMTTPANWNSPLRPGEKYPLVVFSHGLGAFRTLYSAIGIDLASHGFIVAAVEHRDRSASATYYFKDQSAAEIGDKSWLYLRTLKQEEETHIRNEQVRQRAKECSQALSLILDIDHGKPVKNALDLKFDMEQLKDSIDREKIAVIGHSFGGATVIQTLSEDQRFRCGIALDAWMFPLGDEVYSRIPQPLFFINSEYFQYPANIIKMKKCYSPDKERKMITIRGSVHQNFADFTFATGKIIGHMLKLKGDIDSNVAIDLSNKASLAFLQKHLGLHKDFDQWDCLIEGDDENLIPGTNINTTNQHIMLQNSSGIEKYN
modifications: full-length
[2]; E. coli lysate
  PAF-AH activity, Lysate: 3.1 U/ml/OD600
[2]; E. coli media
  PAF-AH activity, Media: 0.003 U/ml/OD600
